Tests used:
[1] = target: sialylated IgG1 V11 (G237D, P238D, H268D, P271G, A330R) Fc (human); assay: SPR
[2] = target: sialylated IgG1 GA (G236A) Fc (human); assay: SPR

Question: Which fold change in affinity against WT sFc [1] does the source give for “FcγRIIB (CD32b), as used in SPR with Fc proteins (from UniProt P31994 43-310) (receptor)” here?
Answer: Its fold change in affinity against WT sFc is 37 fold.

Question: How did the fold weaker affinity against WT sFc [1] turn out when “FcγRIA (CD64) (from UniProt P12314 16-374) (receptor)” was run?
Answer: The fold weaker affinity against WT sFc was 193 fold.

Question: For “FcγRIIA (CD32a), variant not named in the sentence (from UniProt P12318 34-317) (receptor)”, which fold change in affinity against WT sFc [2] is on record?
Answer: The fold change in affinity against WT sFc was 10 fold.
